In patent US20240352087A1 one finds IC50 data, which are given here for six substances.

pIC50: −log10 of the molar value.

Among the targets are B*35:01; A*29:02; B*40:01; B*27:05.
Assay in all cases: HLA-binding assay

Turning to E6 52-61, the pIC50 (as a rule, the negative decadic logarithm of the IC50, by convention in mol/L) in the assay with B*35:01 was 7.29. Consider E5 65-73, for which the pIC50 with A*29:02 is 6.35. For the substance E6 81-90, the pIC50 with B*40:01 is 9.27.

As to E5 55-63, in the assay with B*35:01, the negative-log IC50 (pIC50) was 8.85. In the assay with B*27:05, E6 137-144 had a pIC50 of 7.89. E6 83-90 showed a pIC50 in the assay with B*27:05 of 7.92.
